Laboratory results: publication PMC9834240, “Senescent cells perturb intestinal stem cell differentiation through Ptk7 induced noncanonical Wnt and YAP signaling” (Nature Communications, 2023)

B1: sPtk7: soluble/shed N-terminal extracellular domain of Ptk7 (protein)
chain: AIVFIKQPSSQDALQGRRALLRCEVEAPGPVHVYWLLDGAPVQDTERRFAQGSSLSFAAVDRLQDSGTFQCVARDDVTGEEARSANASFNIKWIEAGPVVLKHPASEAEIQPQTQVTLRCHIDGHPRPTYQWFRDGTPLSDGQSNHTVSSKERNLTLRPAGPEHSGLYSCCAHSAFGQACSSQNFTLSIADESFARVVLAPQDVVVARYEEAMFHCQFSAQPPPSLQWLFEDETPITNRSRPPHLRRATVFANGSLLLTQVRPRNAGIYRCIGQGQRGPPIILEATLHLAEIEDMPLFEPRVFTAGSEERVTCLPPKGLPEPSVWWEHAGVRLPTHGRVYQKGHELVLANIAESDAGVYTCHAANLAGQRRQDVNITVATVPSWLKKPQDSQLEEGKPGYLDCLTQATPKPTVVWYRNQMLISEDSRFEVFKNGTLRINSVEVYDGTWYRCMSSTPAGSIEAQARVQVLEKLKFTPPPQPQQCMEFDKEATVPCSATGREKPTIKWERADGSSLPEWVTDNAGTLHFARVTRDDAGNYTCIASNGPQGQIRAHVQLTVAVFITFKVEPERTTVYQGHTALLQCEAQGDPKPLIQWKGKDRILDPTKLGPRMHIFQNGSLVIHDVAPEDSGRYTCIAGNSCNIKHTEAPLYVVDKPVPEESEGPGSPPPYKMIQT
modifications: left off: Fc (human IgG1, from the anti-hIgG1-Fc detection antibody), end not stated, kept
notes: soluble/shed N-terminal extracellular domain of Ptk7

Legend:
MEFs = assay: SA-β-Gal staining; assay type: cell-based, mouse; details: X-ray irradiation or doxorubicin (250 nM, 3 days)
Experimental: Staining was performed with the Senescence Detection Kit (Abcam, #ab65351) following the manufacturer’s protocol. Briefly, MEFs were fixed for 15 min with 1× fixation solution, washed with PBS, then stained overnight at 37 °C in 1× staining solution. Brightfield images were captured on the Zeiss Axio Imager M2 microscope.

[1] = tested on: soluble Ptk7 (sPtk7) shed by MEFs; assay: Western blot for sPtk7 in conditioned media; assay type: cell-based, mouse
Experimental: Twenty-four hours before collecting conditioned media (CM), MEFs were washed with serum-free DMEM twice, and serum-free DMEM was added. After 24 h in serum-free DMEM, this CM was collected, filtered using Steriflip filters (Millipore, #SE1M179M6) to remove cell debris, and concentrated using centrifugal filter units (Amicon ultra-15 centricon; Millipore, # UFC900324). To collect CM without sPtk7, TAPI-1 (Millipore, #59053) or GM6001 (Sigma-Aldrich, #364206) containing serum-free DMEM instead of serum-free DMEM was added to the cells. To inhibit Wnt secretion, IWP-L6 (Sigma-Aldrich, #504819) containing serum-free DMEM instead of serum-free DMEM was added to the cells. CM was filtered and dialyzed for 24–48 h to remove the inhibitors before concentration. Concentrated CM from equal numbers of MEFs was mixed with IntestiCult Organoid Growth Medium (Stem Cell Technologies, #06005) and added to the organoid cultures.
Conditioned media corresponding to the same number of cells were loaded for SDS–PAGE. Total cell and tissue lysates of mouse fibroblasts and intestine were prepared using RIPA lysis buffer (Thermo Fisher Scientific, #89900) with protease/phosphatase inhibitor (Thermo Fisher Scientific, #1861281). Protein concentration was measured with BCA protein assay kit (Thermo Fisher Scientific, #23227), and equal amount of proteins were loaded for SDS–PAGE. […]

[2] = tested on: cytosolic Ca2+ in mouse intestinal organoids; assay: live Ca2+ imaging of mouse intestinal organoids (GCaMP6f/tdTomato: baselined area under curve, peak number, height, width); assay type: cell-based; details: live organoids expressing GCaMP6f
Experimental: Z stacks were acquired every 10 s.
Z-stack images were converted to mean intensity projections and, where required; background was subtracted using a rolling ball algorithm. Segmentation was conducted on a max-projection over-time of the GCaMP6f channel using Cellpose’s pre-trained “Cytoplasm” classifier. Mean intensity traces were measured in each ROI over the time course in both the GCaMP6f and TdTomato channels using scikit-image[138]. Ca^2+ oscillation patterns were calculated in an unsupervised, automated manner using MATLAB. Mean intensity traces were smoothed using a Savitzky-Golay filter and peaks were identified using the “findpeaks” algorithm from the MATLAB Signal Processing Toolbox. Graphs for GCaMP6f/tdTomato fluorescence ratio, peak numbers, peak height, peak width and baselined area under the curve were generated using Python matplotlib and seaborn packages. Statistical analysis was performed using Python SciPy and scikit-post-hoc packages.

biotinylated Wnt3a = assay: ELISA binding to Wnt3a; design: species or system mouse; details: PTK7 with FZD7 CRD
Experimental: (§1) Proteins used in ELISAs were obtained from R&D Systems: PTK7-Fc (R&D Systems, #9799-TK), biotinylated Wnt3a (R&D Systems, #BT1324), biotinylated Wnt5a (R&D Systems, #BT645). […] Assay plates (384 Maxisorp plates, Nunc, # 464718) were prepared by incubation overnight with 30 µl/well Neutravidin (2 µg/ml, Thermo Fisher Scientific, #31055) in PBS at 4 °C. Plates were emptied and incubated with 100 µl/well of blocking buffer (PBS, 2% bovine serum albumin, 0.01% NaN3) for 1 h at room temperature with shaking. Blocking buffer was aspirated and plates were washed 8x with 70 µl/well of PBS-T. In parallel, bio-Wnt3a or bio-Wnt5a were incubated in helper plates (384 well plates, Nunc; #264574) with a dilution series of PTK7-Fc or FZD7-His in the presence or absence of FZD7-His as a competitor in assay diluent (PBS + 0.5 % BSA + 15 ppm ProClin 300 (Sigma-Aldrich, #48914-U) for 1 h at 4 °C. Protein mixtures (25 µl/well) were transferred from helper plates to 3 wells of assay plates (technical triplicates), and incubated for 1 h at 4 °C. Assay plates were aspirated and washed 8× with 70 µl/well of PBS-T. Binding was detected by 25 µl/well of anti-hIgG1-Fc-HRP (0.2 µg/ml, Thermo Fisher Scientific, #A-10648) or anti-His-tag-HRP (0.2 µg/ml, Abcam, #ab1187) in assay diluent, incubated for 1 h at 4 °C. […] Absorbance at 450 nm was recorded with a plate reader. […]

biotinylated Wnt5a = assay: ELISA binding to Wnt5a; design: species or system human/mouse (hmWnt5a); details: Wnt5a versus Wnt3a
Experimental: as §1

| Molecule | senescence (SA-β-gal) (MEFs) | levels of sPtk7 in conditioned media [1] | effect on cytosolic Ca2+ levels and oscillations [2] | competition for binding to Wnt3a or Wnt5a (biotinylated Wnt3a) | binding to Wnt3a and Wnt5a, relative affinity (biotinylated Wnt5a) |
| --- | --- | --- | --- | --- | --- |
| COc1cccc2c1C(=O)c1c(O)c3c(c(O)c1C2=O)C[C@@](O)(C(=O)CO)C[C@@H]3O[C@H]1C[C@H](N)[C@H](O)[C@H](C)O1 [doxorubicin] | confirmed senescence | contained higher levels of sPtk7 | – | – | – |
| B1 | – | – | modulate cytosolic Ca^2+ oscillations | unaffected by a saturating amount of FZD7 CRD | bound Wnt5a with higher affinity |
